B1: H3v-47 Fab (Fab, V domains shown)
VH: QVQLVQSGAEVKKPGSSVRVSCKASGDTFSSYSITWVRQAPGHGLQWMGGIFPIFGSTNYAQKFDDRLTITTDDSSRTVYMELTSLRLEDTAVYYCARGASKVEPAAPAYSDAFDMWGQGTLVTVSS
VL: DIVMTQSPGTLSLSPGERATLSCRTSQGVSSSYLAWYQQKPGQAPRLLISGSSSRATGIPDRFSGSGSGRDFTLTISRLEPEDSAVYYCQQYATSPTFGQGTRVEIK
B2: H3v-47 IgG (antibody, V domains shown)
VH: B1 VH
VL: B1 VL

What was measured:
Test in all cases: BLI
[1] = molecular target: HA of A/Brisbane/10/2007 (H3N2) virus (influenza A virus A/Brisbane/10/2007 …)
[2] = molecular target: A/Panama/2007/1999 H3N2 HA, soluble trimeric (influenza A virus A/Panama/2007/1999 …)
[3] = molecular target: A/Minnesota/11/2010 H3N2v HA, soluble, biotinylated (wild type) (influenza A virus A/Minnesota/11/2010 …)

Binder	Kd [1] [nM]	Kd [2] [nM]	Kd [3] [nM]
B1	< 5	< 5	–
B2	–	–	< 0.001

— article PMC6039445 (2018)
